Seven molecules from article PMC314469, “Protein Interaction Networks by Proteome Peptide Scanning” (PLoS Biology, 2004) can be followed below.

One assay has as its target T1, Yhr016c SH3 (YSC84_YEAST), P32793.
T1 chain: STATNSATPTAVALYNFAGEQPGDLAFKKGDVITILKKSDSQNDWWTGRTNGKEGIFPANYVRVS
In words: SPOT array.
Regarding FLHSKKIPEVPQTD [YGR281W 89-102], the normalised SPOT signal, Boehringer light units (BLU); mean over the file's lines of this peptide turned out to be 25.6.
In turn, FLLKKMFPAPPLPT [YDL172C 130-143] displayed a normalised SPOT signal, Boehringer light units (BLU); mean over the file's lines of this peptide of 40.3.
In the case of FHPEKLTPYTPMTG [YHR204W 260-273], the normalised SPOT signal, Boehringer light units (BLU); mean over the file's lines of this peptide turned out to be 42.
Same read-out and setting: the figure for FNGDRLVPTLPTVS [YPR095C 191-204] is 750; for FQPQRTAPKPPISA [YNL298W 451-464] it is 21.1; for FIKNKAKPLIPIEL [YJL201W 254-267] it is 72.
In turn, FQDYRSSPWSPSRS [YLR169W 87-100] showed a normalised SPOT signal, Boehringer light units (BLU); mean over the file's lines of this peptide of 221.

The target in the next assay is T2, Rvs167 SH3 (RV167_YEAST), P39743.
T2 chain: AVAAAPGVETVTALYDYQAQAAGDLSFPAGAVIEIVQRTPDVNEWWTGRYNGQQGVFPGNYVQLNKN
In words: SPOT array.
As for FLHSKKIPEVPQTD [YGR281W 89-102], the normalised SPOT signal, Boehringer light units (BLU); mean over the file's lines of this peptide was 15.3.
Still for that read-out and setting: the figure for FLLKKMFPAPPLPT [YDL172C 130-143] is 52.4; for FHPEKLTPYTPMTG [YHR204W 260-273] it is 12.7; for FNGDRLVPTLPTVS [YPR095C 191-204] it is 2290.
On to FQPQRTAPKPPISA [YNL298W 451-464], for which the normalised SPOT signal, Boehringer light units (BLU); mean over the file's lines of this peptide amounted to 148.
Same read-out and setting: the figure for FIKNKAKPLIPIEL [YJL201W 254-267] is 952; for FQDYRSSPWSPSRS [YLR169W 87-100] it is 575.

The target of another assay is T3, Boi1 SH3 (BOI1_YEAST), P38041.
T3 chain: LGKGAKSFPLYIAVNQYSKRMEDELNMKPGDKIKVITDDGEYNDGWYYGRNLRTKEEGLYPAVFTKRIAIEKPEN
In words: SPOT array.
In turn, FLHSKKIPEVPQTD [YGR281W 89-102] returned a normalised SPOT signal, Boehringer light units (BLU); mean over the file's lines of this peptide of 37.9.
FLLKKMFPAPPLPT [YDL172C 130-143] returned a normalised SPOT signal, Boehringer light units (BLU); mean over the file's lines of this peptide of 235.
The same measure, in the same setting: in the case of FHPEKLTPYTPMTG [YHR204W 260-273] it was 95.4; in that of FNGDRLVPTLPTVS [YPR095C 191-204], 132; in that of FQPQRTAPKPPISA [YNL298W 451-464], 4820.
On the same count and under the same terms, in the case of FIKNKAKPLIPIEL [YJL201W 254-267] it was 700.
On the same count and under the same terms, the figure for FQDYRSSPWSPSRS [YLR169W 87-100] is 33700.

For a further assay, the target named is T4, Boi2 SH3 (BOI2_YEAST), P39969.
T4 chain: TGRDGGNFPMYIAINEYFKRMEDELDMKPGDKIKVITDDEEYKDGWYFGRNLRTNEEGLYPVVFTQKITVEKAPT
Kind of assay: SPOT array.
Consider FLHSKKIPEVPQTD [YGR281W 89-102], for which the normalised SPOT signal, Boehringer light units (BLU); mean over the file's lines of this peptide came to 8.2.
For FLLKKMFPAPPLPT [YDL172C 130-143], the normalised SPOT signal, Boehringer light units (BLU); mean over the file's lines of this peptide amounted to 27.9.
Still for that read-out and setting: in the case of FHPEKLTPYTPMTG [YHR204W 260-273] it was 19.5; in that of FNGDRLVPTLPTVS [YPR095C 191-204], 190; in that of FQPQRTAPKPPISA [YNL298W 451-464], 19.6.
The same measure, in the same setting: in the case of FIKNKAKPLIPIEL [YJL201W 254-267] it was 10.9; in that of FQDYRSSPWSPSRS [YLR169W 87-100], 314.

The target in another assay is T5, Yfr024 SH3 (LSB3_YEAST), P43603.
T5 chain: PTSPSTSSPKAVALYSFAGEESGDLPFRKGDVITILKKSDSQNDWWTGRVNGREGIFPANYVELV
In words: SPOT array.
Turning to FLHSKKIPEVPQTD [YGR281W 89-102], the normalised SPOT signal, Boehringer light units (BLU); mean over the file's lines of this peptide is 15.3.
On the same count and under the same terms, in the case of FLLKKMFPAPPLPT [YDL172C 130-143] it was 132; in that of FHPEKLTPYTPMTG [YHR204W 260-273], 45.9.
In the case of FNGDRLVPTLPTVS [YPR095C 191-204], the normalised SPOT signal, Boehringer light units (BLU); mean over the file's lines of this peptide was determined as 2210.
Same read-out and setting: the figure for FQPQRTAPKPPISA [YNL298W 451-464] is 379; for FIKNKAKPLIPIEL [YJL201W 254-267] it is 146; for FQDYRSSPWSPSRS [YLR169W 87-100] it is 548.

For a further assay, the target named is T6, Myo5 SH3 (MYO5_YEAST), Q04439.
T6 chain: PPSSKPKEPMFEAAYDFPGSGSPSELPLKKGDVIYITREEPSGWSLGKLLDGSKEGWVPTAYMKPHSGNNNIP
Kind of assay: SPOT array.
Molecule FLHSKKIPEVPQTD [YGR281W 89-102] had a normalised SPOT signal, Boehringer light units (BLU); mean over the file's lines of this peptide of 288.
On the same count and under the same terms, the figure for FLLKKMFPAPPLPT [YDL172C 130-143] is 23700; for FHPEKLTPYTPMTG [YHR204W 260-273] it is 96.5; for FNGDRLVPTLPTVS [YPR095C 191-204] it is 161.
For FQPQRTAPKPPISA [YNL298W 451-464], the normalised SPOT signal, Boehringer light units (BLU); mean over the file's lines of this peptide amounted to 88300.
Same read-out and setting: in the case of FIKNKAKPLIPIEL [YJL201W 254-267] it was 656; in that of FQDYRSSPWSPSRS [YLR169W 87-100], 264.

The next assay deals with Sho1 SH3 (SHO1_YEAST), P40073. In words: SPOT array.
Sequence of Sho1 SH3 (SHO1_YEAST), P40073 (P40073 295-366): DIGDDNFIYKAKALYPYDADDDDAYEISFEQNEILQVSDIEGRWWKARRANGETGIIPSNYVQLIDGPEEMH
With FLHSKKIPEVPQTD [YGR281W 89-102], the normalised SPOT signal, Boehringer light units (BLU); mean over the file's lines of this peptide was found to be 1190.
The same measure, in the same setting: in the case of FLLKKMFPAPPLPT [YDL172C 130-143] it was 149; in that of FHPEKLTPYTPMTG [YHR204W 260-273], 25.1; in that of FNGDRLVPTLPTVS [YPR095C 191-204], 40.
Still for that read-out and setting: the figure for FQPQRTAPKPPISA [YNL298W 451-464] is 39.8; for FIKNKAKPLIPIEL [YJL201W 254-267] it is 410; for FQDYRSSPWSPSRS [YLR169W 87-100] it is 953.
